Data as given in publication PMC3042988, “The activation mechanism of Irga6, an interferon-inducible GTPase contributing to mouse resistance against Toxoplasma gondii” (BMC Biology, 2011).
Changes are numbered by the printed parent chain. Numbers in names are those of the source.

B1: Irga6 (IIGP1), wild type, recombinant, GST cleaved off (enzyme, mouse)
chain: MGQLFSSPKSDENNDLPSSFTGYFKKFNTGRKIISQEILNLIELRMRKGNIQLTNSAISDALKEIDSSVLNVAVTGETGSGKSSFINTLRGIGNEEEGAAKTGVVEVTMERHPYKHPNIPNVVFWDLPGIGSTNFPPNTYLEKMKFYEYDFFIIISATRFKKNDIDIAKAISMMKKEFYFVRTKVDSDITNEADGKPQTFDKEKVLQDIRLNCVNTFRENGIAEPPIFLLSNKNVCHYDFPVLMDKLISDLPIYKRHNFMVSLPNITDSVIEKKRQFLKQRIWLEGFAADLVNIIPSLTFLLDSDLETLKKSMKFYRTVFGVDETSLQRLARDWEIEVDQVEAMIKSPAVFKPTDEETIQERLSRYIQEFCLANGYLLPKNSFLKEIFYLKYYFLDMVTEDAKTLLKEICL
notes: Irga6 (IIGP1), mouse immunity-related GTPase; also called WT Irga6; source: E. coli BL21, purified (glutathione Sepharose, GST cleaved off with thrombin, Superdex 75); not shown: GST, N-terminal, cleaved
B2: Irga6-K246E (enzyme, mouse)
chain: B1 chain with K246E
notes: Irga6 (IIGP1), mouse; mutant made in pGEX-4T-2-Irga6; not shown: GST, N-terminal, cleaved
B3: Irga6-K176E (enzyme, mouse)
chain: B1 chain with K176E
notes: as for B2
B4: Irga6-R210E (enzyme, mouse)
chain: B1 chain with R210E
notes: as for B2
B5: Irga6-D186N (enzyme, mouse)
chain: B1 chain with D186N
notes: Irga6 (IIGP1), mouse; mutant made in pGEX-4T-2-Irga6; also called G4-motif mutant; source: E. coli BL21, purified (glutathione Sepharose, GST cleaved off with thrombin, Superdex 75); not shown: GST, N-terminal, cleaved
B6: Irga6-K169E (enzyme, mouse)
chain: B1 chain with K169E
notes: as for B2
B7: Irga6-E106A (enzyme, mouse)
chain: B1 chain with E106A
notes: Irga6 (IIGP1), mouse; mutant made in pGEX-4T-2-Irga6; source: E. coli BL21, purified (glutathione Sepharose, GST cleaved off with thrombin, Superdex 75); not shown: GST, N-terminal, cleaved
B8: Irga6 with Lys101 mutated to glutamate (enzyme, mouse)
chain: B1 chain with K101E
notes: Irga6 (IIGP1), mouse; mutant made in pGEX-4T-2-Irga6; also called Lys101 mutant; K101E; source: E. coli BL21, purified (glutathione Sepharose, GST cleaved off with thrombin, Superdex 75); not shown: GST, N-terminal, cleaved
B9: Irga6-R31E-K32E (enzyme, mouse)
chain: B1 chain with R31E, K32E
notes: Irga6 (IIGP1), mouse; mutant made in pGEX-4T-2-Irga6; also called Arg31, Lys32 mutant; not shown: GST, N-terminal, cleaved
B10: Irga6-E106D (enzyme, mouse)
chain: B1 chain with E106D
notes: as for B7
B11: Irga6-E106Q (enzyme, mouse)
chain: B1 chain with E106Q
notes: as for B7
B12: Irga6-E106N (enzyme, mouse)
chain: B1 chain with E106N
notes: as for B7

Target: the molecule itself
Test: light scattering; self-association (oligomerisation) of 80 μM Irga6 with 10 mM GTP at 37°C; B1 buffer (50 mM Tris/HCl pH 7.4, 5 mM MgCl2)/2 mM DTT; conventional light scattering at 350 or 600 nm

Binding result, binds:
B1, B2, B3, B4, B5, B6, B7, B8, B9, B10, B11, B12
